Paper PMC3229523, “Identification of Lactoferricin B Intracellular Targets Using an Escherichia coli Proteome Chip” (PLoS ONE, 2011)
Ends that are not written are not given here. * marks the point of attachment. Biotin = O=C1N[C@H]2[C@H](CS[C@H]2CCCCC(=O)*)N1

What was measured:
Assay in all cases: peptide or protein array; E. coli proteome chip: purified His-tagged proteins printed in duplicate on Fullmoon slides, blocked with 1% BSA; 10 nM N-terminal biotinylated LfcinB with 1% BSA, room temperature, 1 h; detected with DyLight 649-labeled streptavidin, ratio to DyLight 549-labeled anti-His antibody; ProCAT normalisation, local cut-off; triplicate chips
Conditions in all cases: both partners purified
Adi = molecular target: T1, Adi (E. coli K-12, UniProt P28629 1-755)
T1 construct: Adi, E. coli K-12
T1 sequence (looked up): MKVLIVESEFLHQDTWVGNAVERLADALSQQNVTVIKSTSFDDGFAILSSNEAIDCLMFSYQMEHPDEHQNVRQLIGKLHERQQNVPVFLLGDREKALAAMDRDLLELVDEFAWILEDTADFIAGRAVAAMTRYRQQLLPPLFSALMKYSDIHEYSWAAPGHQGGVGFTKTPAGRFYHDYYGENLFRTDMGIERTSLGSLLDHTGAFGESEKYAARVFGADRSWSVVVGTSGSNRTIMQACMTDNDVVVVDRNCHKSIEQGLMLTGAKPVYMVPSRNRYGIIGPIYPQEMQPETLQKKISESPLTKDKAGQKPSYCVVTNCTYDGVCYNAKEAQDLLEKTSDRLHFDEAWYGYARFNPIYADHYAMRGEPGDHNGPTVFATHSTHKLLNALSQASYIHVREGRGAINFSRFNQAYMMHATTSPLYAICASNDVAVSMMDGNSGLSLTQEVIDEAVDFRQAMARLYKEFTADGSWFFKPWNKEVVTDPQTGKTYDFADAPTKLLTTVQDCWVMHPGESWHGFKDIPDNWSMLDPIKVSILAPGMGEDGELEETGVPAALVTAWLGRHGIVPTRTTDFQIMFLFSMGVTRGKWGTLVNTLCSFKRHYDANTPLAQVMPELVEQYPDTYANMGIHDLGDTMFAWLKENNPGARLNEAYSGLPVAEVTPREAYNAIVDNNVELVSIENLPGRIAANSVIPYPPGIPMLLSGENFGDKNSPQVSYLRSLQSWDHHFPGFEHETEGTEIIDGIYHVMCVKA

FlgC = molecular target: T2, FlgC (E. coli K-12, UniProt P0ABX2 1-134)
T2 construct: FlgC, E. coli K-12
T2 sequence (looked up): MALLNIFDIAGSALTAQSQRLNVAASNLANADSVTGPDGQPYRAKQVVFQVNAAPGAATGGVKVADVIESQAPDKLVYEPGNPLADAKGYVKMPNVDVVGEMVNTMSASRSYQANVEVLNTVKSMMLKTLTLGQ

RfaS = molecular target: T3, RfaS (E. coli K-12, UniProt P27126 1-311)
T3 construct: RfaS, E. coli K-12
T3 sequence (looked up): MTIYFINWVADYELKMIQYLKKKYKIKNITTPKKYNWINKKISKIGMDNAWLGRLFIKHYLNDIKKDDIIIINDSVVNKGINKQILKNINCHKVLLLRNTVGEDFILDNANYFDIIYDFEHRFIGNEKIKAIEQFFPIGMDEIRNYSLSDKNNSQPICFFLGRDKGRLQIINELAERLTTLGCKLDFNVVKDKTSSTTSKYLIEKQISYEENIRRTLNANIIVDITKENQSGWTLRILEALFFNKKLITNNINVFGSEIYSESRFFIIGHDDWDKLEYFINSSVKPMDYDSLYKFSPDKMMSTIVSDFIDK

YtfI = molecular target: T4, YtfI (E. coli K-12, UniProt P39317 1-312)
T4 construct: YtfI, E. coli K-12
T4 sequence (looked up): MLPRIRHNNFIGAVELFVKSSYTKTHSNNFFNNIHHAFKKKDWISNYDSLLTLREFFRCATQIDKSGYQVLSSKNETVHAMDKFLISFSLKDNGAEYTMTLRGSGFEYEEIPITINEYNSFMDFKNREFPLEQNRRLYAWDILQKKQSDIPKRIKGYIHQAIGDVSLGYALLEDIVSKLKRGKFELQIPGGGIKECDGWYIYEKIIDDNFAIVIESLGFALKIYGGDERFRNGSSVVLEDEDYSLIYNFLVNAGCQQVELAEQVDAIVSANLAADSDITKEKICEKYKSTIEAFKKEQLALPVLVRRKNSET

YheH = molecular target: T5, YheH (E. coli K-12, UniProt P45760 7-125)
T5 construct: YheH, E. coli K-12
T5 sequence (looked up): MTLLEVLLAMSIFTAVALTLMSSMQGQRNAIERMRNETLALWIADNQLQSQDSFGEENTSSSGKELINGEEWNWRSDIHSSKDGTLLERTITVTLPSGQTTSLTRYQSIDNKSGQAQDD

GidB = molecular target: T6, GidB (E. coli K-12, UniProt P0A6U5 1-207)
T6 construct: GidB, E. coli K-12
T6 sequence (looked up): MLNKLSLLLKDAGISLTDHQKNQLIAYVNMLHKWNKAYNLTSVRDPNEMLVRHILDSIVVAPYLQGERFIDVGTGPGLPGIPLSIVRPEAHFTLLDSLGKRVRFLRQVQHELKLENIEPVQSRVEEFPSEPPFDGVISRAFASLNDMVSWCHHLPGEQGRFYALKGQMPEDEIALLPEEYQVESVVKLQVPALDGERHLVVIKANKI

Measured: binding result

B1: N-terminal biotinylated Lactoferricin B (peptide, UniProt P24627 36-60, looked up)
peptide: Biotin-FKCRRWQWRMKKLGAPSITCVRRAF
modifications: ends and bridges not checked
notes: lactoferricin B (LfcinB), cationic antimicrobial peptide of 25 amino acids; also called biotinylated LfcinB; biotin-labeled LfcinB; source: bought: Kelowna Inc
binds: all assays above
